Assay results published in patent US20240192215A1 (E AND S HEALTHCARE, published 2024).

How the values were obtained:
Experiment in all cases: peptide microarray, anti-mouse IgG DyLight 650, MMC2 heatmap (Example 17)
Peptide_078 = target: T1, Peptide_078
T1 peptide: DCQDVASECEVKCMP
Experimental: (§1) 5, 1, 0.2, 0.04, 0.008 and 0.0016 μg/mL serial dilutions were incubated on a single multi-well microarray slide at 30° C. for 1 hour. The slide includes 21 individual mini-arrays (one mini-array per sample dilution).
(§2) DyLight 650 was used as a label. False-positive binding to a peptide was evaluated by performing one additional control incubation in which only a secondary antibody was applied on the same microarray slide. Before performing each step, the microarrays were washed with a washing buffer.
(§3) To visualize the obtained results and compare binding regions across individual cultures, as shown in FIGS. 21A to 21D, heatmap diagrams were calculated. In FIGS. 21A to 21D, the fluorescence intensity is expressed in a color-coded manner, white indicates no binding, and red indicates strong binding. For all evaluations, the MMC2-value of the average pixel fluorescence for each peptide was calculated.

Peptide_041 = target: T2, Peptide_041
T2 peptide: VVDFSATWCGPCKMI
Experimental: as §1, §2, §3

Peptide_059 = target: T3, Peptide_059
T3 peptide: FHSLSEKYSNVIFLE
Experimental: as §1, §2, §3

Peptide_090 = target: T4, Peptide_090
T4 peptide: CMPTFQFFKKGQKVG
Experimental: as §1, §2, §3

Peptide_108 = target: T5, Peptide_108
T5 peptide: GANKEKLEATINELV
Experimental: as §1, §2, §3

Peptide_098 = target: T6, Peptide_098
T6 peptide: KKGQKVGEFSGANKE
Experimental: as §1, §2, §3

Peptide_107 = target: T7, Peptide_107
T7 peptide: SGANKEKLEATINEL
Experimental: as §1, §2, §3

Peptide_077 = target: T8, Peptide_077
T8 peptide: DDCQDVASECEVKCM
Experimental: as §1, §2, §3

Peptide_072 = target: T9, Peptide_072
T9 peptide: LEVDVDDCQDVASEC
Experimental: as §1, §2, §3

Peptide_042 = target: T10, Peptide_042
T10 peptide: VDFSATWCGPCKMIK
Experimental: as §1, §2, §3

Peptide_066 = target: T11, Peptide_066
T11 peptide: YSNVIFLEVDVDDCQ
Experimental: as §1, §2, §3

Peptide_069 = target: T12, Peptide_069
T12 peptide: VIFLEVDVDDCQDVA
Experimental: as §1, §2, §3

Peptide_068 = target: T13, Peptide_068
T13 peptide: NVIFLEVDVDDCQDV
Experimental: as §1, §2, §3

Peptide_061 = target: T14, Peptide_061
T14 peptide: SLSEKYSNVIFLEVD
Experimental: as §1, §2, §3

Peptide_037 = target: T15, Peptide_037
T15 peptide: DKLVVVDFSATWCGP
Experimental: as §1, §2, §3

Peptide_026 = target: T16, Peptide_026
T16 peptide: TAFQEALDAAGDKLV
Experimental: as §1, §2, §3

Peptide_102 = target: T17, Peptide_102
T17 peptide: KVGEFSGANKEKLEA
Experimental: as §1, §2, §3

Peptide_011 = target: T18, Peptide_011
T18 peptide: HHHHHHHHVKQIESK
Experimental: as §1, §2, §3

Peptide_073 = target: T19, Peptide_073
T19 construct: also called EVDVDDCQDVASECE
T19 peptide: EVDVDDCQDVASECE
Experimental: as §1, §2, §3

Peptide_017 = target: T20, Peptide_017
T20 peptide: HHVKQIESKTAFQEA
Experimental: as §1, §2, §3

Peptide_091 = target: T21, Peptide_091
T21 peptide: MPTFQFFKKGQKVGE
Experimental: as §1, §2, §3

Peptide_079 = target: T22, Peptide_079
T22 peptide: CQDVASECEVKCMPT
Experimental: as §1, §2, §3

Peptide_005 = target: T23, Peptide_005 (human)
T23 construct: 15-mer on microarray; not native form, recombinant insert region
T23 peptide: ADVHSQHHHHHHHHV
Experimental: as §1, §2, §3

Peptide_088 = target: T24, Peptide_088
T24 peptide: VKCMPTFQFFKKGQK
Experimental: as §1, §2, §3

Peptide_064 = target: T25, Peptide_064
T25 peptide: EKYSNVIFLEVDVDD
Experimental: as §1, §2, §3

Peptide_001 = target: T26, Peptide_001
T26 peptide: VATAADVHSQHHHHH
Experimental: as §1, §2, §3

Peptide_076 = target: T27, Peptide_076
T27 peptide: VDDCQDVASECEVKC
Experimental: as §1, §2, §3

Peptide_099 = target: T28, Peptide_099
T28 peptide: KGQKVGEFSGANKEK
Experimental: as §1, §2, §3

binding result (Peptide_078): no binding (tested: 5 ug/mL)
binding result (Peptide_041): no binding (tested: 5 ug/mL)
binding result (Peptide_059): no binding (tested: 5 ug/mL)
binding result (Peptide_090): no binding (tested: 5 ug/mL)
binding result (Peptide_108): no binding (tested: 5 ug/mL)
binding result (Peptide_098): no binding (tested: 5 ug/mL)
binding result (Peptide_107): no binding (tested: 5 ug/mL)
binding result (Peptide_077): no binding (tested: 5 ug/mL)
binding result (Peptide_072): no binding (tested: 5 ug/mL)
binding result (Peptide_042): no binding (tested: 5 ug/mL)
binding result (Peptide_066): no binding (tested: 5 ug/mL)
binding result (Peptide_069): no binding (tested: 5 ug/mL)
binding result (Peptide_068): no binding (tested: 5 ug/mL)
binding result (Peptide_061): no binding (tested: 5 ug/mL)
binding result (Peptide_037): no binding (tested: 5 ug/mL)
binding result (Peptide_026): no binding (tested: 5 ug/mL)
binding result (Peptide_102): no binding (tested: 5 ug/mL)
binding result (Peptide_011): no binding (tested: 5 ug/mL)
binding result (Peptide_073): no binding (tested: 5 ug/mL)
binding result (Peptide_017): binds
binding result (Peptide_091): no binding (tested: 5 ug/mL)
binding result (Peptide_079): no binding (tested: 5 ug/mL)
binding result (Peptide_005): no binding (tested: 5 ug/mL)
binding result (Peptide_088): no binding (tested: 5 ug/mL)
binding result (Peptide_064): no binding (tested: 5 ug/mL)
binding result (Peptide_001): no binding (tested: 5 ug/mL)
binding result (Peptide_076): no binding (tested: 5 ug/mL)
binding result (Peptide_099): no binding (tested: 5 ug/mL)
B1: monoclonal antibody B264 (antibody, mouse IgG1, kappa, V domains shown)
VH: QVQLQQSGAELARPGASVKMSCKASGYTFTSYTMHWVKQRPGQGLEWIGYINPTSDYTNYNQKFKDKATLTADKSSSTAYMQLSSLTSEDSAVYFCASEGGFLYYFDYWGQGTTLTVSS
VL: DVLMTQTPLSLPVSLGDQASISCRSSQSIVHSNGNTYLEWYLQKPGQSPKLLIYKVSNRFSGVPDRFSGSGSGTDFTLKISRVEAEDLGVYYCFQGSHVPYTFGGGTKLEIKR
notes: also called AB264; B264 (Trx1-mIgG1)
